{
  "source": "patent US10975360B2",
  "about": "“Process for the modification of alkanes, fatty acids and fatty alcohols” (priority 2016, dated 2021)",
  "molecules": {"B1": {"name": "CYP505E3: self-sufficient cytochrome P450 monooxygenase from Aspergillus terreus, SEQ ID No 1 (protein, listed as Aspergillus terreus)", "chain": "MIKETEQIPGPRPLPVVGNLFDMDLEHGLECLIRLADDFGPLFQITINGEKQIFATSQALVDELCDESRFHKAVMGGLEKLRMLASDGLFTAYHGERGWGIAHRILVPAFGPLRIRNMFEEMNDVAQQLCLKWARQGSSTSINITDDFTRLTLDTIALCTMNFRLNSFYNNETMHPFVKSMLYVLRESDIQSMLPGIANCIRVKARSRMSKHIQLMRNMARGIIQERRDQAEPVDDLLNTLLNGRDPVTGEGMSDDLIINNVITFLIAGHETTSGLLSFTFYYLLQNPHILERAQNEVDEVTGGERITVQHLGRLTYIDAILKESLRLMPTAPAFTVTPKKPEVLGGAWAIDAGQAVNVLLPVCLRDRSVFGPDADEFRPERMLEENFSKLPPNSWKPFGNGERSCIGRAFAWQEAQLVVAMVLQTFDLVPDDPSYKLRIKETLTIKPDGFRVRATLRRGQSATGLSQGSMSASGATSSVASPGPPAATGAQSNPAGGQRISFFYGSNSGTCKALAHRLASSLMGRGFTEQKLAALDTVVGNLPTDQPVIIVTTSYDGRPTDDAEEFVRWLESKRPVLQGVSYAVFGCGHHDWAKTFYRIPILIDDLMHKAGATRLTALGTANAAVSDLFSDLELWEETNLLPALREAFPPSNSSDVESSEPHQLQICVSKPRRVDMHRGLVEAKVTAVRTLTSPDSPEKRHVEFHVQGDTTWRPGDHVNILPVNPLSTVSRVLAYFQLAPDHSITVNSFNTQGLPSATPVSATELFSSFVELSQPATRKNLKALAMAAESKTDEQELIRLHDSYDALVRDKRVSVLDILERFPSISLPIGIFISMLPPLRLRTYSLSMAPSFKPSHGSLTFSVINEPAWSGNGQYLGVGSNYLASLTPGSLLYLSPRPAKDAFHLPADQFNTPIIMICAGSGLAPFMGFIQERMTWLKQGRPLAKGLLFFGCRGPHLDDLYYEELSEFEDAGVVEVHRAYSRAPDDVRAKGCRHVQHRLVTEAEAVRDHWGRNAIVYVCGSSNMARGVQTVLEEILGTLPPERYVAEIF"}},
  "key": {"[1]": {"assay": "Whole cell biotransformation of dodecane by CYP505s expressed in P. pastoris", "assay_type": "cell-based", "conditions": "whole cells of P. pastoris", "method": "Precultures of P. pastoris transformants were prepared in buffered complex glycerol media (BMGY). BMGY contained: 10 g/l yeast extract, 20 g/l peptone, 3.4 g/l yeast nitrogen base, 10 g/l ammonium sulfate, 100 mM potassium phosphate (pH 6), 0.4 mg/l biotin and 1% (v/v) glycerol. Erlenmeyer flasks (500 ml) containing 50 ml BMGY media were inoculated with single colonies of 24 h old YPD-agar cultures of P. pastoris KM71 mut^s3/CYP505E3 and incubated at 30° C. and 225 rpm for 24 h. The cultures were harvested using pre-weighed centrifuge tubes at 3000 g for 5 min and stored on ice until further use.\nThe main cultures for expression were prepared in buffered complex methanol media (BMMY) containing 10 g/l yeast extract, 20 g/l peptone, 3.4 g/l yeast nitrogen base, 10 g/l ammonium sulfate, 100 mM potassium phosphate (pH 6), 0.4 mg/l biotin and 0.5 or 1% (v/v) methanol. Harvested cells from precultures were resuspended in BMMY media to final concentration of 1 g WC per 40 ml (appx. 25 g/l). The resuspended cultures (100 ml) were transferred to 500 ml Erlenmeyer flasks and incubated at 25° C. and 225 rpm for 24 h. The cultures were then harvested at 3000 g for 5 min using pre-weighed centrifuge tubes.\nDifferent transformants of Pichia pastoris KM71 harbouring the CYP505 genes for SEQ ID Nos 1 to 7 and 9 to 12 were grown and harvested as described above. The harvested cells were resuspended to give 1 g wet cell weight in 40 ml MOPS buffer (200 mM, 100 mM glucose, 100 mM glycerol, pH 8) and 1 ml aliquots of these cell suspensions were transferred to 40 ml amber vials. Dodecane, 1-dodecanol and 1-tetradecanol were added neat to these cell suspensions to give final concentrations of 200 mM in the case of the alcohols and 1 M in the case of dodecane while in the case of dodecanoic acid 20 μl of a 500 mM stock solution (in DMSO) was added to give a final concentration of 10 mM. Transformants harbouring the CYP505 genes for SEQ ID Nos 1 to 4 were tested for the biotransformation of 1-dodecanol, 1-tetradecanol, dodecanoic acid, tetradecanoic acid and dodecane, while those harbouring the CYP505 genes for SEQ ID Nos 5 to 7 and 9 to 12 were only tested for the biotransformation of 1-dodecanol and dodecanoic acid. The biotransformations were incubated at 25° C. and 225 rpm for 24 h. Extractions were performed using ethyl acetate (500 μl×2). The extracts were analyzed using GC/MS."}, "[2]": {"assay": "Biotransformation of hexadecanoic acid using CFE of E. coli, Tris-HCl buffer", "assay_type": "biochemical", "method": "(§1) Expression of genes in E. coli was performed by using ZYP-5052 auto-induction medium (Table 1) with in the case of the CYP 1 mM 5-aminolevulinic acid and 0.05 mM FeCl3 added. The CYP505E3 culture was cultivated using baffled flasks and incubated at 20° C. and 180 rpm for 24 h, while the GDH, and HLADH expressing cultures were all cultivated at 25° C. and 200 rpm for 24 h. Cultures were harvested through centrifugation (6 000×g, 10 min) and 1 g (wet weight) resuspended in 2 ml, 5 ml or 10 ml Tris-HCl, Phosphate or MOPS buffer, as indicated, (pH 8, 200 mM) containing 100 mM of glucose and glycerol. CFEs were obtained by a single passage of the suspended cells through a One Shot Cell Disrupter (Constant Systems) at 207 MPa. The soluble fraction was separated from unbroken cells by centrifugation (20 000×g, 20 min).\n(§2) The biotransformation reaction mixture (BRM) consisted of CYP and GDH CFE suspensions prepared from cells in Tris-HCl buffers (1 g wet weight in 2 ml buffer) mixed in a 1:1 ratio with 0.1 mM NADPH added. Dodecanoic acid, tetradecanoic acid, hexadecanoic acid, 1-tetradecanol and 1-hexadecanol (20 μl of a 255 mM stock solution in DMSO) were added to 40 ml amber glass vials containing 1 ml BRM to give final substrate concentrations of 5 mmol·LBRM^−1. These vials were placed on an orbital shaker at 20° C., 200 rpm, oscillation amplitude 26 mm. Vials were removed after 24 h for extraction. Biotransformations were stopped by adding 170 ul of 0.5M HCl, extracted with 2×500 μl EtOAc and subjected to GC-MS analysis. A sample of δ-dodecalactone in ethyl acetate (0.1 mM) was also methylated with TMSH and subjected to GC-MS analysis."}, "[3]": {"assay": "Biotransformation of 1-tetradecanol using CFE of E. coli, Tris-HCl buffer", "assay_type": "biochemical", "conditions": "5 mmol/L substrate, CFE of E. coli, Tris-HCl, 24 h", "method": "as §1\nas §2, with “Vials were removed after 24 h for extraction. Biotransformations were stopped by adding 170 ul of 0.5M HCl, extracted with 2×500 μl EtOAc and subjected to GC-MS analysis. A sample of δ-dodecalactone in ethyl acetate (0.1 mM) was also methylated with TMSH and subjected to GC-MS analysis.” left out"}, "[4]": {"assay": "Biotransformation of hexadecane using CFE of E. coli expressing CYP505E3", "assay_type": "biochemical", "method": "as §1\n(§3) Biotransformations of dodecane, tetradecane and hexadecane were carried using only CYP505E3 containing CFE prepared from an E. coli cell suspension (1 g wet weight in 10 ml buffer) in MOPS buffer (200 mM, pH 8) containing glucose and glycerol (100 mM each) as well as 0.1 mM NADPH. Alkane substrates (250 μL) were added to 1 mL BRM in 40 ml amber glass vials. These vials were placed on an orbital shaker at 20° C., 200 rpm, oscillation amplitude 26 mm and incubated for 24 h."}, "[5]": {"assay_type": "biochemical, E. coli", "method": "as §1, §3"}, "[6]": {"assay": "Biotransformation of C12 fatty acid using CFE of E. coli expressing CYP505E3 in different buffers", "assay_type": "biochemical", "method": "as §1\nThe biotransformation reaction mixture (BRM) consisted of CYP and GDH CFE suspensions prepared from cells in Tris-HCl, phosphate and MOPS buffers (1 g wet weight in 5 ml buffer) mixed in a 1:1 ratio with 0.1 mM NADPH added. The final CYP concentrations were 1.1, 1.3 and 1.5 μM in respectively the Tris-HCl, phosphate and MOPS buffers. Dodecanoic acid (20 μl of 255 or 510 mM fatty acid stock solution in DMSO) was added to 40 ml amber glass vials containing 1 ml BRM to give final substrate concentrations of 5 and 10 mmol·LBRM^−1. […]"}, "[7]": {"conditions": "whole cell biotransformations, E. coli; cited from earlier work"}},
  "data": [
    {"molecule": "B1", "values": [
      {"measurement": "products produced from dodecane (GC-MS)", "setting": "[1]; 1 M dodecane, 24 h", "value": "5-dodecanol"},
      {"measurement": "ω-7 hydroxylase activity C12alk", "setting": "[1]; C12 alkane, GC-MS peak height", "value": "+++ (+++ 1 million < RA < 10 million)"},
      {"measurement": "products identified from hexadecanoic acid (GC-MS, methylated samples)", "setting": "[2]; 5 mmol/L substrate, Tris-HCl, 24 h", "value": "9-hydroxy hexadecanoic acid"},
      {"measurement": "ω-7 hydroxylase activity C16FA", "setting": "[2]; C16 fatty acid, GC-MS peak height", "value": "++ (++ 0.1 million < RA < 1 million)"},
      {"measurement": "products detected from tetradecanol (GC-MS)", "setting": "[3]", "value": "1,7-tetradecane diol and 1,8-tetradecane diol"},
      {"measurement": "ω-7 hydroxylase activity C16alk", "setting": "[4]; C16 alkane, GC-MS peak height", "value": "+ (+ − 0.01 million < RA < 0.1 million)"},
      {"measurement": "product from hexadecane (GC-MS)", "setting": "[4]; MOPS buffer, 24 h", "value": "8-hexadecanol"},
      {"measurement": "product from dodecane (GC-MS)", "setting": "[5]", "value": "5-dodecanol"},
      {"measurement": "product from tetradecane (GC-MS)", "setting": "[5]", "value": "7-tetradecanol"},
      {"measurement": "conversion of substrate", "setting": "[6]; 5 mM dodecanoic acid, within 24 h, all buffers", "value": "almost completely converted"},
      {"measurement": "δ-dodecalactone and 5-OH 12FAME as share of the total products", "setting": "[6]; dodecanoic acid, CFE, Tris-HCl, phosphate or MOPS buffer pH 8", "value": "30-35%"},
      {"measurement": "activity towards alkanes and alkylbenzens", "setting": "[7]", "value": "no detectable activity"}
    ]}
  ]
}
